Data published in the supplement of paper PMC7877785.
± gives the uncertainty stated by the source.

Test: self-splicing fitness, log relative to wild type (ln ratio); higher = more splicing; Tetrahymena group I intron in knt gene, E. coli kanamycin selection, DiMSum; sequences stand for … in CUCUCU…GGAGGGAAAAGUUAUCAGGCAUGCACCUGGUAGCUAGUCUUUAAACCAAUAGAUUGCAUCGGUUUAAAAGGCAAGACCGUCAAAUUGCGGGAAAGGGGUCAACAGCCGUUCAGUACCAAGUCUCAGGGGAAACUUUGAGAUGGCCUUGCAAAGGGUAUGGUAAUAAGCUGACGGACAUGGUCCUAACCACGCAGCCAAGUCCUAAGUCAACAGAUCUUCUGUUGAUAUGGAUGCAGUUCACAGACUAAAUGUCGGUCGGGGAAGAUGUAUUCUUCUCAUAAGAUAUAGUCGGACCUCUCCUUAAUGGGAGCUAGCGGAUGAAGUGAUGCAACACUGGAGCCGCUGGGAACUAAUUUGUAUGCGAAAGUAUAUUGAUUAGUUUUGGAGUACUCGUGGUCG
Summary of the method: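 Six replicate transformations of E. coli BL21(DE3) with a pET-22b(+) library were grown overnight at 37°C or 30°C. The library randomised all eight P1ex-region intron nucleotides, the intron lying in the knt kanamycin-resistance gene, and plates were LB agar with or without 25 μg/mL kanamycin plus 100 μg/mL carbenicillin, 50 μM IPTG and 0.2% rhamnose. Pooled colonies were amplicon-sequenced on an Illumina HiSeq 2500, and fitness is the DiMSum error-weighted combination of wild-type-normalised replicate fold changes, kanamycin versus none.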

| Sequence | self-splicing fitness (ln) (30 °C) | self-splicing fitness (ln) (37 °C) |
| --- | --- | --- |
| CAAAAGCAAUAUUACGCACA | -1.75 ± 0.1 | -0.746 ± 0.11 |
| CAAAAGCAAUAUUACGCACG | -1.5 ± 0.098 | -0.59 ± 0.12 |
| CAAAAGCAAUAUUACGCCAA | -3.4 ± 0.36 | -2.1 ± 0.24 |
| CAAAAGCAAUAUUACGCCAG | -0.849 ± 0.075 | -1.32 ± 0.09 |
| CAAAAGCAAUAUUACGCCCC | -3.27 ± 0.3 |  |
| CAAAAGCAAUAUUACGCUUU | -3.96 ± 0.21 | -2.55 ± 0.17 |
| CAAAAGCAAUAUUACGGAUA | -3.27 ± 0.31 | -1.81 ± 0.16 |
| CAAAAGCAAUAUUACGGGAA | -2.69 ± 0.23 | -1.13 ± 0.2 |
| CAAAAGCAAUAUUACGGGGU | -4.06 ± 0.2 | -2.7 ± 0.18 |
| CAAAAGCAAUAUUACGGGUG | -0.689 ± 0.046 | -0.361 ± 0.076 |
| CAAAAGCAAUAUUACGGUGC | -3.76 ± 0.24 | -2.8 ± 0.24 |
| CAAAAGCAAUAUUACGGUUU | -2.93 ± 0.11 | -1.21 ± 0.1 |
| CAAAAGCAAUAUUACGUACG | -0.125 ± 0.061 | 0.143 ± 0.07 |
| CAAAAGCAAUAUUACGUACU | -2.74 ± 0.11 | -0.995 ± 0.09 |
| CAAAAGCAAUAUUACGUAUC | -4.08 ± 0.21 | -1.02 ± 0.15 |
| CAAAAGCAAUAUUACGUGAG | -1.06 ± 0.04 | -0.328 ± 0.069 |
| CAAAAGCAAUAUUACGUGCG | -1 ± 0.051 | -0.35 ± 0.063 |
| CAAAAGCAAUAUUACGUUCU | -1.3 ± 0.14 | -0.926 ± 0.14 |
| CAACAGCAAUAUUACGACGG | -0.0366 ± 0.058 | 0.186 ± 0.085 |

| Sequence | self-splicing fitness (ln) (30 °C) | self-splicing fitness (ln) (37 °C) |
| --- | --- | --- |
| CAACAGCAAUAUUACGAGAU | -3.74 ± 0.2 | -1.79 ± 0.15 |
| CAACAGCAAUAUUACGAGGG | -2.38 ± 0.073 | -2.2 ± 0.094 |
| CAACAGCAAUAUUACGAGGU | -4.43 ± 0.29 | -2.24 ± 0.17 |
| CAACAGCAAUAUUACGAUAG | -0.377 ± 0.052 | 0.653 ± 0.07 |
| CAACAGCAAUAUUACGAUUG | -2.22 ± 0.063 | -1.42 ± 0.073 |
| CAACAGCAAUAUUACGCAGU | -2.78 ± 0.19 | -3.62 ± 0.3 |
| CAACAGCAAUAUUACGCAUU | -3.14 ± 0.091 | -1.79 ± 0.089 |
| CAACAGCAAUAUUACGCCAU | -3.25 ± 0.11 | -2.94 ± 0.14 |
| CAACAGCAAUAUUACGCCCG | -0.408 ± 0.098 | 0.465 ± 0.12 |
| CAACAGCAAUAUUACGCGUG | -4.02 ± 0.22 | -3.31 ± 0.16 |
| CAACAGCAAUAUUACGCUCC | -1.72 ± 0.098 | -0.675 ± 0.14 |
| CAACAGCAAUAUUACGCUGA | -3.74 ± 0.2 | -3.02 ± 0.2 |
| CAACAGCAAUAUUACGGGUA | -3.03 ± 0.12 | -1.22 ± 0.084 |
| CAACAGCAAUAUUACGGGUG | -1.65 ± 0.051 | -0.569 ± 0.057 |
| CAACAGCAAUAUUACGGUAU | -3.52 ± 0.1 | -1.9 ± 0.09 |
| CAACAGCAAUAUUACGGUUC | -1.89 ± 0.075 | -1.34 ± 0.1 |
| CAACAGCAAUAUUACGUACG | -0.0141 ± 0.079 | 0.194 ± 0.11 |
| CAACAGCAAUAUUACGUCAU | -3.92 ± 0.12 | -1.86 ± 0.1 |
